From patent publication US20210009668A1 (ROCHE DIAGNOSTICS OPERATIONS, published 2021) come the findings set out here.

As usually defined, the Kd is the constant that tells how readily two partners part at equilibrium. By koff is commonly meant the first-order rate constant of dissociation. As usually defined, the kon is the rate constant with which the complex forms.

B1: anti-cTnT Fab mutant 16 (Y34I, V101Y + Y104F) (Fab, V domains shown)
VH: EVQLQQSGPELVKPGASVKMSCKASGYTFTDYIMKWVKQSHGKSLEWIGDINPNNGETFYNQKFKDKATLTVDKSSSTAYMQLNSLTSEDSAVYYCATRYFDFWGQGTTLTVSS
VL: DIVLTQSPASLAVSLGQRATISCKASQSVDYDGTSYMNWFQQKAGQPPKRLIYAASNLESGIPARFSGRGSGTDFALNIHPVEEEDAATYYCQQSNEDPYTFGGGTKLEIK
notes: also called combination 16
B2: anti-cTnT Fab mutant 23 (F60W, V101Y + Y104F) (Fab, V domains shown)
VH: EVQLQQSGPELVKPGASVKMSCKASGYTFTDYYMKWVKQSHGKSLEWIGDINPNNGETWYNQKFKDKATLTVDKSSSTAYMQLNSLTSEDSAVYYCATRYFDFWGQGTTLTVSS
VL: DIVLTQSPASLAVSLGQRATISCKASQSVDYDGTSYMNWFQQKAGQPPKRLIYAASNLESGIPARFSGRGSGTDFALNIHPVEEEDAATYYCQQSNEDPYTFGGGTKLEIK
notes: it was tied to mutant 23 by the printed mutations; also called combination 23
B3: anti-cTnT Fab mutant 22 (F60W, Y104F) (Fab, V domains shown)
VH: EVQLQQSGPELVKPGASVKMSCKASGYTFTDYYMKWVKQSHGKSLEWIGDINPNNGETWYNQKFKDKATLTVDKSSSTAYMQLNSLTSEDSAVYYCATRVFDFWGQGTTLTVSS
VL: DIVLTQSPASLAVSLGQRATISCKASQSVDYDGTSYMNWFQQKAGQPPKRLIYAASNLESGIPARFSGRGSGTDFALNIHPVEEEDAATYYCQQSNEDPYTFGGGTKLEIK
notes: also called combination 22
B4: anti-cTnT Fab mutant 18 (V101Y) (Fab, V domains shown)
VH: EVQLQQSGPELVKPGASVKMSCKASGYTFTDYYMKWVKQSHGKSLEWIGDINPNNGETFYNQKFKDKATLTVDKSSSTAYMQLNSLTSEDSAVYYCATRYFDYWGQGTTLTVSS
VL: DIVLTQSPASLAVSLGQRATISCKASQSVDYDGTSYMNWFQQKAGQPPKRLIYAASNLESGIPARFSGRGSGTDFALNIHPVEEEDAATYYCQQSNEDPYTFGGGTKLEIK
notes: it was tied to mutant 18 by the printed mutation V101Y; also called combination 18
B5: anti-cTnT Fab mutant 19 (Y104F) (Fab, V domains shown)
VH: EVQLQQSGPELVKPGASVKMSCKASGYTFTDYYMKWVKQSHGKSLEWIGDINPNNGETFYNQKFKDKATLTVDKSSSTAYMQLNSLTSEDSAVYYCATRVFDFWGQGTTLTVSS
VL: DIVLTQSPASLAVSLGQRATISCKASQSVDYDGTSYMNWFQQKAGQPPKRLIYAASNLESGIPARFSGRGSGTDFALNIHPVEEEDAATYYCQQSNEDPYTFGGGTKLEIK
notes: also called combination 19
B6: anti-cTnT Fab mutant 20 (V101Y + Y104F) (Fab, V domains shown)
VH: EVQLQQSGPELVKPGASVKMSCKASGYTFTDYYMKWVKQSHGKSLEWIGDINPNNGETFYNQKFKDKATLTVDKSSSTAYMQLNSLTSEDSAVYYCATRYFDFWGQGTTLTVSS
VL: DIVLTQSPASLAVSLGQRATISCKASQSVDYDGTSYMNWFQQKAGQPPKRLIYAASNLESGIPARFSGRGSGTDFALNIHPVEEEDAATYYCQQSNEDPYTFGGGTKLEIK
notes: also called combination 20
B7: anti-cTnT Fab mutant 17 (F60W) (Fab, V domains shown)
VH: EVQLQQSGPELVKPGASVKMSCKASGYTFTDYYMKWVKQSHGKSLEWIGDINPNNGETWYNQKFKDKATLTVDKSSSTAYMQLNSLTSEDSAVYYCATRVFDYWGQGTTLTVSS
VL: DIVLTQSPASLAVSLGQRATISCKASQSVDYDGTSYMNWFQQKAGQPPKRLIYAASNLESGIPARFSGRGSGTDFALNIHPVEEEDAATYYCQQSNEDPYTFGGGTKLEIK
notes: also called combination 17
B8: anti-cTnT Fab mutant 21 (F60W, V101Y) (Fab, V domains shown)
VH: EVQLQQSGPELVKPGASVKMSCKASGYTFTDYYMKWVKQSHGKSLEWIGDINPNNGETWYNQKFKDKATLTVDKSSSTAYMQLNSLTSEDSAVYYCATRYFDYWGQGTTLTVSS
VL: DIVLTQSPASLAVSLGQRATISCKASQSVDYDGTSYMNWFQQKAGQPPKRLIYAASNLESGIPARFSGRGSGTDFALNIHPVEEEDAATYYCQQSNEDPYTFGGGTKLEIK
notes: also called combination 21

The first assay addresses T1, recombinant human cardiac troponin T (human, UniProt P45379 2-298).
T1 construct: In the ECL assay the cTnT came from the Troponin T hs CalSet calibrator; also called cTnT; TnT
Briefly: SPR (Biacore T200, 37 C), Fab captured, cTnT analyte. Here is the method:
(§1) Detailed kinetic investigations were performed at 37° C. on a GE Healthcare T200 instrument. A Biacore CM-5 series S sensor was mounted into the instrument and was preconditioned according to the manufacturer's instructions. The system buffer was HBS-ET (10 mM HEPES (pH 7.4), 150 mM NaCl, 1 mM EDTA, 0.05% (w/v) Tween® 20). The sample buffer was the system buffer supplemented with 1 mg/ml CMD (Carboxymethyldextran, Fluka). In one embodiment an anti-human antibody capture system was established on the CMS biosensor. GAHF(ab′)2, (goat anti human F(ab′)2) (Code Nr.: 109-005-097, lot #13.12.2005, Jackson Immuno Research) was immobilized according to the manufacturer's instructions using NHS/EDC chemistry. 30 μg/ml GAHF(ab′)2 in 10 mM sodium acetate buffer (pH 5.0) were preconcentrated to the flow cells 1, 2, 3 and 4 and were immobilized with 10.000 RU GAHF(ab′)2. The sensor was subsequently saturated with 1 M ethanolamine pH 8.5.
Chimeric anti-TnT antibody fragments were periplasmatically expressed in E. coli cells as described and were lyzed by methods known (for technical details see: Andersen, D. C. & Reilly, D. E. (2004); Production technologies for monoclonal antibodies and their fragments. Curr Opin Biotechnol 15, 456-62). The lysates were diluted 1:20 in sample buffer. Fab fragments were captured via their humanized framework regions from the expression lysates on the biosensor at a flow rate of 10 μl/min for 1 min followed by a 2 min washing step with 10-fold concentrated HBS-EP buffer at 30 μl/min. The Fab fragment capture level (CL) in response units (RU) was monitored. Recombinant human TnT (Roche, 37 kDa) was diluted in sample buffer at 90 nM and a concentration series was produced with […], 30 nM, 11 nM, 3.3 nM, 1.1 nM, 0 nM, 3.3 nM TnT concentration. The analyte concentration series were 80 μl/min for 3 min association phase and the dissociation phase was monitored for 3 min.
The kinetic parameters ka [1/Ms], kd [1/s], t1/2 diss [min], KD [M] and the binding stoichiometry (Molar Ratio) (for details see: Schraeml, M. & Biehl, M. (2012); Kinetic screening in the antibody development process. Methods Mol Biol 901, 171-81.) of the cTnT analyte were determined for each Fab fragment mutant with the Biaevaluation Software (GE healthcare) according to the manufacturer's instructions.
Background: Surface plasmon resonance follows binding to a sensor surface in real time, without labels.
In the case of B1, the dissociation constant Kd came to 3.4 nM, the “MR (Molar Ratio)” value is 0.6, the koff came out at 0.0059 s⁻¹ and the on-rate constant (kon) amounted to 1.7e+06 M⁻¹ s⁻¹. In addition, the t/2-diss came to 2 min.

With B2, the Kd stood at 1.2 nM, the “MR (Molar Ratio)” value came out at 0.6, the koff is 0.0034 s⁻¹ and the kon came out at 2.8e+06 M⁻¹ s⁻¹. Also, the t/2-diss worked out at 3 min.

Turning to B3, the “MR (Molar Ratio)” value is 0.7, the koff was 0.0011 s⁻¹, the kon was 3e+06 M⁻¹ s⁻¹ and the t/2-diss came to 10 min.

In the case of B4, the Kd is 1.6 nM, the “MR (Molar Ratio)” value worked out at 0.5, the koff was 0.0047 s⁻¹ and the kon worked out at 2.9e+06 M⁻¹ s⁻¹. In addition, the t/2-diss was 2 min.

For the molecule B5, the Kd was determined as 0.46 nM, the “MR (Molar Ratio)” value is 0.8, the koff was found to be 0.0014 s⁻¹ and the kon stood at 2.9e+06 M⁻¹ s⁻¹. The t/2-diss was 8 min.

For the molecule B6, the Kd is 1.1 nM, the “MR (Molar Ratio)” value amounted to 0.6, the koff stood at 0.0034 s⁻¹ and the kon stood at 3.1e+06 M⁻¹ s⁻¹. For the same molecule, the t/2-diss came out at 3 min.

For B7, the Kd worked out at 0.54 nM, the “MR (Molar Ratio)” value stood at 0.7, the koff was 0.0016 s⁻¹ and the on-rate constant (kon) was found to be 2.9e+06 M⁻¹ s⁻¹. The t/2-diss was determined as 7 min.

For the molecule B8, the Kd is 1.6 nM, the “MR (Molar Ratio)” value came to 0.5, the koff is 0.0043 s⁻¹ and the kon was 2.7e+06 M⁻¹ s⁻¹.

The target in a further assay is T1, recombinant human cardiac troponin T. As to the kind of experiment: SPR (Biacore T200, 37 C), Fab captured, cTnT analyte; Fab fragment. Here is the method: as §1, with “The sensor was subsequently saturated with 1 M ethanolamine pH 8.5.” left out
Chimeric anti-TnT antibody fragments were periplasmatically expressed in E. coli cells as described and were lyzed by methods known (for technical details see: Andersen, D. C. & Reilly, D. E. (2004); Production technologies for monoclonal antibodies and their fragments. Curr Opin Biotechnol 15, 456-62). […] The Fab fragment capture level (CL) in response units (RU) was monitored. […] The analyte concentration series were 80 μl/min for 3 min association phase and the dissociation phase was monitored for 3 min. […]
As to B3, the equilibrium dissociation constant (Kd) was determined as 0.38 nM.
